Experimental data from patent US20220275083A1 (EUTILEX, published 2022).
Each block holds one binder with its values, some of them ahead of it.

Experiments:
[1] = target: T1, PD-L1 antigen (SinoBiologics, Cat. No. 10084-H08H) (human, UniProt Q9NZQ7 19-238); assay: SPR, Biacore T200; variant captured on CM5, PD-L1 antigen injected
T1 construct: Bought antigen; also called human PD-L1
Procedure: (§1) Affinity to 4-1BB was determined using the bispecific epitope binding protein variants diluted to 5 μg/ml and then fixed to CM5 chip (Cytiva, BR-1005-30) with human capture (Cytiva, Cat. No. BR-1008-39). The 4-1BB antigen (abclon) was injected at concentrations of 100, 50, 25, 12.5, 6.25, and 3.125 nM, the association time was set to 150 seconds, and the dissociation time was set to 240 seconds. Biacore T200 (cytiva) was used as the analysis equipment.
Affinity to PD-L1 was determined using the bispecific epitope binding protein variants diluted to 10 μg/ml and then fixed to CM5 chip with human capture.

4-1BB antigen (abclon) = target: T2, 4-1BB antigen (abclon) (UniProt Q07011 24-186); assay: SPR, Biacore T200; variant captured on CM5, 4-1BB antigen injected
T2 construct: Bought antigen
T2 sequence (Q07011 24-186): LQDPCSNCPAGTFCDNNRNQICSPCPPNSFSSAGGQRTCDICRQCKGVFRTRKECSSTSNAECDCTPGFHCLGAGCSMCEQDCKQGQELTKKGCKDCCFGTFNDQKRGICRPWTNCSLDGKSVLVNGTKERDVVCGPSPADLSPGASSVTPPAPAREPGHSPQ
Procedure: as §1

T1 sequence (Q9NZQ7 19-238 limits assumed): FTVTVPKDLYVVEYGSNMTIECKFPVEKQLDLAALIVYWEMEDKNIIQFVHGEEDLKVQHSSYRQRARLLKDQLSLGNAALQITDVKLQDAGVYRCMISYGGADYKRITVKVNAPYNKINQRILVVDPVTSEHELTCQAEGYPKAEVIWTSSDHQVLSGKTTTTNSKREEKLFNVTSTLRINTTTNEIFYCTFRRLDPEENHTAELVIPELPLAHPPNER

Kd [1]: 2.34 nM | koff [1]: 0.0014 s⁻¹ | kon [1]: 596000 M⁻¹ s⁻¹ | Kd (4-1BB antigen (abclon)): 2.87 nM | koff (4-1BB antigen (abclon)): 0.000662 s⁻¹ | kon (4-1BB antigen (abclon)): 231000 M⁻¹ s⁻¹
B1: bispecific epitope binding protein S04 (bispecific antibody)
chain: DIVMTQSPAFLSVTPGEKVTITCRASQTISDYLHWYQQKPDQAPKLLIKYASQSISGIPSRFSGSGSGTDFTFTISSLEAEDAATYYCQDGHSWPPTFGQGTKLEIKGSTSGSGKPGSGEGSTKGQVQLVQSGAEVKKPGASVKLSCKASGYTFSSYWMHWVRQAPGQGLEWIGEINPGNGHTNYNEKFKSRVTMTRDTSTSTAYMELSSLRSEDTAVYYCARSFKTARAFAYWGQGTLVTVSSASGGGGSGGGGSDKTHTCPPCPAPEAAGGPSVFLFPPKPKDTLMISRTPEVTCVVVDVSHEDPEVKFNWYVDGVEVHNAKTKPREEQYNSTYRVVSVLTVLHQDWLNGKEYKCAVSNKALPAPIEKTISKAKGQPREPQVYTLPPSREEMTKNQVSLTCLVKGFYPSDIAVEWESNGQPENNYKTTPPVLDSDGSFFLYSKLTVDKSRWQQGNVFSCSVMHEALHNHYTQKSLSLSPGGGGGSGGGGSFLESPDRPWNAPTFSPALLLVAEGDNATFTCSFSNASESFHVVWHRESPSGQTDTLAAFPEDRSQPGQDHRFRVTRLPNGRDFHMSVVRAQRNDSGTYVCGVISLAPKIQIKESLRAELRVTERRAEVPTAHPSPSPRPAGQFQTLVVGGGGGSGGGGSGGGGSFLESPDRPWNAPTFSPALLLVAEGDNATFTCSFSNASESFHVVWHRESPSGQTDTLAAFPEDRSQPGQDHRFRVTRLPNGRDFHMSVVRAQRNDSGTYVCGVISLAPKIQIKESLRAELRVTERRAEVPTAHPSPSPRPAGQFQTLVVG
notes: Anti-4-1BB 94kvt scFv x euPD-1 with hinge and engineered IgG1 Fc

Kd [1]: 5.73 nM | koff [1]: 0.00132 s⁻¹ | kon [1]: 230000 M⁻¹ s⁻¹ | Kd (4-1BB antigen (abclon)): 3.34 nM | koff (4-1BB antigen (abclon)): 0.000537 s⁻¹ | kon (4-1BB antigen (abclon)): 161000 M⁻¹ s⁻¹
B2: bispecific epitope binding protein S01 (bispecific antibody)
chain: QVQLVQSGAEVKKPGASVKLSCKASGYTFSSYWMHWVRQAPGQGLEWIGEINPGNGHTNYNEKFKSRVTMTRDTSTSTAYMELSSLRSEDTAVYYCARSFKTARAFAYWGQGTLVTVSSGSTSGSGKPGSGEGSTKGDIVMTQSPAFLSVTPGEKVTITCRASQTISDYLHWYQQKPDQAPKLLIKYASQSISGIPSRFSGSGSGTDFTFTISSLEAEDAATYYCQDGHSWPPTFGQGTKLEIKASGGGGSGGGGSDKTHTCPPCPAPEAAGGPSVFLFPPKPKDTLMISRTPEVTCVVVDVSHEDPEVKFNWYVDGVEVHNAKTKPREEQYNSTYRVVSVLTVLHQDWLNGKEYKCAVSNKALPAPIEKTISKAKGQPREPQVYTLPPSREEMTKNQVSLTCLVKGFYPSDIAVEWESNGQPENNYKTTPPVLDSDGSFFLYSKLTVDKSRWQQGNVFSCSVMHEALHNHYTQKSLSLSPGGGGGSGGGGSFLESPDRPWNAPTFSPALLLVAEGDNATFTCSFSNASESFHVVWHRESPSGQTDTLAAFPEDRSQPGQDHRFRVTRLPNGRDFHMSVVRAQRNDSGTYVCGVISLAPKIQIKESLRAELRVTERRAEVPTAHPSPSPRPAGQFQTLVVG
notes: Anti-4-1BB 94kvt scFv x euPD-1 with hinge and engineered IgG1 Fc (L234A, L235A, K322A, D356E, L358M)

Kd [1]: 1.16 nM | koff [1]: 0.00169 s⁻¹ | kon [1]: 1.46e+06 M⁻¹ s⁻¹ | Kd (4-1BB antigen (abclon)): 3.66 nM | koff (4-1BB antigen (abclon)): 0.000466 s⁻¹ | kon (4-1BB antigen (abclon)): 127000 M⁻¹ s⁻¹
B3: bispecific epitope binding protein S05 (bispecific antibody)
chain: FLESPDRPWNAPTFSPALLLVAEGDNATFTCSFSNASESFHVVWHRESPSGQTDTLAAFPEDRSQPGQDHRFRVTRLPNGRDFHMSVVRAQRNDSGTYVCGVISLAPKIQIKESLRAELRVTERRAEVPTAHPSPSPRPAGQFQTLVVGASGGGGSGGGGSDKTHTCPPCPAPEAAGGPSVFLFPPKPKDTLMISRTPEVTCVVVDVSHEDPEVKFNWYVDGVEVHNAKTKPREEQYNSTYRVVSVLTVLHQDWLNGKEYKCAVSNKALPAPIEKTISKAKGQPREPQVYTLPPSREEMTKNQVSLTCLVKGFYPSDIAVEWESNGQPENNYKTTPPVLDSDGSFFLYSKLTVDKSRWQQGNVFSCSVMHEALHNHYTQKSLSLSPGGGGGSGGGGSQVQLVQSGAEVKKPGASVKLSCKASGYTFSSYWMHWVRQAPGQGLEWIGEINPGNGHTNYNEKFKSRVTMTRDTSTSTAYMELSSLRSEDTAVYYCARSFKTARAFAYWGQGTLVTVSSGSTSGSGKPGSGEGSTKGDIVMTQSPAFLSVTPGEKVTITCRASQTISDYLHWYQQKPDQAPKLLIKYASQSISGIPSRFSGSGSGTDFTFTISSLEAEDAATYYCQDGHSWPPTFGQGTKLEIK
notes: as for B1
